Measured values published in IntAct's records for PubMed 31515488.

B1: Endoplasmic reticulum resident protein 27 (Homo sapiens), Q96DN0 (parent)
chain: MEAAPSRFMFLLFLLTCELAAEVAAEVEKSSDGPGAAQEPTWLTDVPAAMEFIAATEVAVIGFFQDLEIPAVPILHSMVQKFPGVSFGISTDSEVLTHYNITGNTICLFRLVDNEQLNLEDEDIESIDATKLSRFIEINSLHMVTEYNPVTVIGLFNSVIQIHLLLIMNKASPEYEENMHRYQKAAKLFQGKILFILVDSGMKENGKVISFFKLKESQLPALAIYQTLDDEWDTLPTAEVSVEHVQNFCDGFLSGKLLKENRESEGKTPKVEL
B2: Zinc finger and BTB domain-containing protein 43 (Homo sapiens), O43298 (parent)
chain: MEPGTNSFRVEFPDFSSTILQKLNQQRQQGQLCDVSIVVQGHIFRAHKAVLAASSPYFCDQVLLKNSRRIVLPDVMNPRVFENILLSSYTGRLVMPAPEIVSYLTAASFLQMWHVVDKCTEVLEGNPTVLCQKLNHGSDHQSPSSSSYNGLVESFELGSGGHTDFPKAQELRDGENEEESTKDELSSQLTEHEYLPSNSSTEHDRLSTEMASQDGEEGASDSAEFHYTRPMYSKPSIMAHKRWIHVKPERLEQACEGMDVHATYDEHQVTESINTVQTEHTVQPSGVEEDFHIGEKKVEAEFDEQADESNYDEQVDFYGSSMEEFSGERSDGNLIGHRQEAALAAGYSENIEMVTGIKEEASHLGFSATDKLYPCQCGKSFTHKSQRDRHMSMHLGLRPYGCGVCGKKFKMKHHLVGHMKIHTGIKPYECNICAKRFMWRDSFHRHVTSCTKSYEAAKAEQNTTEAN
B3: Inositol monophosphatase 1 (Homo sapiens), P29218-1 (parent)
chain: MADPWQECMDYAVTLARQAGEVVCEAIKNEMNVMLKSSPVDLVTATDQKVEKMLISSIKEKYPSHSFIGEESVAAGEKSILTDNPTWIIDPIDGTTNFVHRFPFVAVSIGFAVNKKIEFGVVYSCVEGKMYTARKGKGAFCNGQKLQVSQQEDITKSLLVTELGSSRTPETVRMVLSNMEKLFCIPVHGIRSVGTAAVNMCLVATGGADAYYEMGIHCWDVAGAGIIVTEAGGVLMDVTGGPFDLMSRRVIAANNRILAERIAKEIQVIPLQRDDED
partner: B3 chain
B4: Phospholipid scramblase 4 (Homo sapiens), Q9NRQ2 (parent)
chain: MSGVVPTAPEQPAGEMENQTKPPDPRPDAPPEYNSHFLPGPPGTAVPPPTGYPGGLPMGYYSPQQPSTFPLYQPVGGIHPVRYQPGKYPMPNQSVPITWMPGPTPMANCPPGLEYLVQLDNIHVLQHFEPLEMMTCFETNNRYDIKNNSDQMVYIVTEDTDDFTRNAYRTLRPFVLRVTDCMGREIMTMQRPFRCTCCCFCCPSARQELEVQCPPGVTIGFVAEHWNLCRAVYSIQNEKKENVMRVRGPCSTYGCGSDSVFEVKSLDGISNIGSIIRKWNGLLSAMADADHFDIHFPLDLDVKMKAMIFGACFLIDFMYFERSPPQRSR

Variants of: B1
Conditions: with ef1d_human EEF1D

effect of a mutation on the interaction | Variant
with no effect | E122K

Variants of: B1
Conditions: with ubql1_human UBQLN1, Q9UMX0
Sequence of ubql1_human UBQLN1, Q9UMX0 (Q9UMX0 whole entry): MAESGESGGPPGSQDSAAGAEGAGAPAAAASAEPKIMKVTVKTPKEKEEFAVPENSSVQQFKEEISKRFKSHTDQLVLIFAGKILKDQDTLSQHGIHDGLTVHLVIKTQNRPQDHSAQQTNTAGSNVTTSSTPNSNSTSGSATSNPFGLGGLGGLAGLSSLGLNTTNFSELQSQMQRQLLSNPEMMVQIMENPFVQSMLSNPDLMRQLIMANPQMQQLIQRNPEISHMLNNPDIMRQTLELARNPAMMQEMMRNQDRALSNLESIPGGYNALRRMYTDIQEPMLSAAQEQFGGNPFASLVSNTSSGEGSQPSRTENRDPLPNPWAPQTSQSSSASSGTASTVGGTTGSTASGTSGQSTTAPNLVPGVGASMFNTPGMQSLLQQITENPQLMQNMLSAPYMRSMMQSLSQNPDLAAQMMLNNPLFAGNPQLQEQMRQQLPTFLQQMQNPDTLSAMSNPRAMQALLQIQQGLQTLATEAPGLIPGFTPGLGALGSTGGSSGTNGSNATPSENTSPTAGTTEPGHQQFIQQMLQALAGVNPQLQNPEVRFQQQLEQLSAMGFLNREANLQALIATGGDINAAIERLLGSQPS

effect of a mutation on the interaction | Variant
with no effect | E122K

Variants of: B1
Conditions: with sgta_human SGTA

effect of a mutation on the interaction | Variant
with no effect | E122K

Variants of: B2
Conditions: with psmd3_human PSMD3, O43242
Sequence of psmd3_human PSMD3, O43242 (O43242 whole entry): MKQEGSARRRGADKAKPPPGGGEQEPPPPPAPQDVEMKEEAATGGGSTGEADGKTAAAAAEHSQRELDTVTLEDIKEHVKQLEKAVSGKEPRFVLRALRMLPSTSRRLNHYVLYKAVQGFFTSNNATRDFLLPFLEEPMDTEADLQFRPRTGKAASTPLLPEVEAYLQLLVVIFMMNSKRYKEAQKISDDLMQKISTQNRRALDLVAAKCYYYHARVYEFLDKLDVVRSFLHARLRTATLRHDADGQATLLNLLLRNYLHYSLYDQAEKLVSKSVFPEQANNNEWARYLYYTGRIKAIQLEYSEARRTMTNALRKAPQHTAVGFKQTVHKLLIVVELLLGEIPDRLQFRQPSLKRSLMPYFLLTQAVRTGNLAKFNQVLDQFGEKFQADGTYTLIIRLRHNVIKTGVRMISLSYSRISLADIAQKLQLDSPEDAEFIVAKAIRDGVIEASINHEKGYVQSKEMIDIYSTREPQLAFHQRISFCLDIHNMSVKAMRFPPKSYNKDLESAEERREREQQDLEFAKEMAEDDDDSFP

effect of a mutation on the interaction | Variant
disrupting interaction strength | L151V

Variants of: B2
Conditions: with traf2_human TRAF2, Q12933
Sequence of traf2_human TRAF2, Q12933 (Q12933 whole entry): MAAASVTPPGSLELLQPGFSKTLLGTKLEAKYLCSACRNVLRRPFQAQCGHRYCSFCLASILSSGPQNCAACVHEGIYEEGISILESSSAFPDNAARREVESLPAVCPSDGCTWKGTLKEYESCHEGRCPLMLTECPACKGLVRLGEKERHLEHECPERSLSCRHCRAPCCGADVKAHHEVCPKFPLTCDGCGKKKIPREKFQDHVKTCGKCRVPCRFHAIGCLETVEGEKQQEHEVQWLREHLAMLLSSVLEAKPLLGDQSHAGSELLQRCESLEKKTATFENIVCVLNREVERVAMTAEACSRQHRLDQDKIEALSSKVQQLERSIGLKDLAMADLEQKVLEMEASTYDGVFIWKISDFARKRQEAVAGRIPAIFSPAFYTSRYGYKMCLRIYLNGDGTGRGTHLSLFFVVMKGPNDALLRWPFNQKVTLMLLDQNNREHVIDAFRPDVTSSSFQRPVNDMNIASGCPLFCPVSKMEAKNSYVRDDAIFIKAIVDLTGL

effect of a mutation on the interaction | Variant
disrupting interaction strength | L151V

Variants of: B2
Conditions: with mo4l2_human MORF4L2, Q15014
Sequence of mo4l2_human MORF4L2, Q15014 (Q15014 whole entry): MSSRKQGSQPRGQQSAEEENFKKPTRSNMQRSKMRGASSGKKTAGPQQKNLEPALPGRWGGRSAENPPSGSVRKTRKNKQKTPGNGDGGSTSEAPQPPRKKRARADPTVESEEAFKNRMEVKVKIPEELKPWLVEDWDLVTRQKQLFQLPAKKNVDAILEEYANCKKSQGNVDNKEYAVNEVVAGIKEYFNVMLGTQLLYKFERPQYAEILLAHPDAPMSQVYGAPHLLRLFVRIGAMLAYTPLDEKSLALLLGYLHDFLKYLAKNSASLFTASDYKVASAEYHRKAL

effect of a mutation on the interaction | Variant
disrupting interaction strength | L151V

Variants of: B2
Conditions: with arrb1_human ARRB1, P49407
Sequence of arrb1_human ARRB1, P49407 (P49407 whole entry): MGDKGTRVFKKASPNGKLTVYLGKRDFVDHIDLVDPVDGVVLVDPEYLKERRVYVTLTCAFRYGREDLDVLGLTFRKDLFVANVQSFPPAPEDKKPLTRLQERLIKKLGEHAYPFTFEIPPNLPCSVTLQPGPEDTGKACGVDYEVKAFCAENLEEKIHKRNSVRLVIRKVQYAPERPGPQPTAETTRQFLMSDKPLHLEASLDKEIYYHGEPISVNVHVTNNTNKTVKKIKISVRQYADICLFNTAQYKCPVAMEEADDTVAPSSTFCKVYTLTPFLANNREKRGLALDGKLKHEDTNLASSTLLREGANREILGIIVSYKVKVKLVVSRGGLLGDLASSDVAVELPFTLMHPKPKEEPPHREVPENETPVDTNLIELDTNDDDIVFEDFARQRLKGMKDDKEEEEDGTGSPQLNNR

effect of a mutation on the interaction | Variant
disrupting interaction strength | L151V

Variants of: B3
Conditions: with impa1_human IMPA1, P29218

effect of a mutation on the interaction | Variant
with no effect | G164S

Variants of: B4
Conditions: with pls1_human PLSCR1, O15162
Sequence of pls1_human PLSCR1, O15162 (O15162 whole entry): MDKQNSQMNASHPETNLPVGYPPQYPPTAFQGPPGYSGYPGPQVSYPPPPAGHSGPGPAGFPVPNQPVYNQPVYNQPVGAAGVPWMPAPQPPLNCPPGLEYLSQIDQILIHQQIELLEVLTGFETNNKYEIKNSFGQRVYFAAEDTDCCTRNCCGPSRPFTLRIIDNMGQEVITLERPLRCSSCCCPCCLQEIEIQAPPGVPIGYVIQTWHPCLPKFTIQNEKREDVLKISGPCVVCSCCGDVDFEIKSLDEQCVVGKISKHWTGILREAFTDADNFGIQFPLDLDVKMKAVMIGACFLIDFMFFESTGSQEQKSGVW

effect of a mutation on the interaction | Variant
with no effect | N34S

Variants of: B4
Conditions: with mtus2_human MTUS2, Q5JR59
Sequence of mtus2_human MTUS2, Q5JR59 (Q5JR59 whole entry): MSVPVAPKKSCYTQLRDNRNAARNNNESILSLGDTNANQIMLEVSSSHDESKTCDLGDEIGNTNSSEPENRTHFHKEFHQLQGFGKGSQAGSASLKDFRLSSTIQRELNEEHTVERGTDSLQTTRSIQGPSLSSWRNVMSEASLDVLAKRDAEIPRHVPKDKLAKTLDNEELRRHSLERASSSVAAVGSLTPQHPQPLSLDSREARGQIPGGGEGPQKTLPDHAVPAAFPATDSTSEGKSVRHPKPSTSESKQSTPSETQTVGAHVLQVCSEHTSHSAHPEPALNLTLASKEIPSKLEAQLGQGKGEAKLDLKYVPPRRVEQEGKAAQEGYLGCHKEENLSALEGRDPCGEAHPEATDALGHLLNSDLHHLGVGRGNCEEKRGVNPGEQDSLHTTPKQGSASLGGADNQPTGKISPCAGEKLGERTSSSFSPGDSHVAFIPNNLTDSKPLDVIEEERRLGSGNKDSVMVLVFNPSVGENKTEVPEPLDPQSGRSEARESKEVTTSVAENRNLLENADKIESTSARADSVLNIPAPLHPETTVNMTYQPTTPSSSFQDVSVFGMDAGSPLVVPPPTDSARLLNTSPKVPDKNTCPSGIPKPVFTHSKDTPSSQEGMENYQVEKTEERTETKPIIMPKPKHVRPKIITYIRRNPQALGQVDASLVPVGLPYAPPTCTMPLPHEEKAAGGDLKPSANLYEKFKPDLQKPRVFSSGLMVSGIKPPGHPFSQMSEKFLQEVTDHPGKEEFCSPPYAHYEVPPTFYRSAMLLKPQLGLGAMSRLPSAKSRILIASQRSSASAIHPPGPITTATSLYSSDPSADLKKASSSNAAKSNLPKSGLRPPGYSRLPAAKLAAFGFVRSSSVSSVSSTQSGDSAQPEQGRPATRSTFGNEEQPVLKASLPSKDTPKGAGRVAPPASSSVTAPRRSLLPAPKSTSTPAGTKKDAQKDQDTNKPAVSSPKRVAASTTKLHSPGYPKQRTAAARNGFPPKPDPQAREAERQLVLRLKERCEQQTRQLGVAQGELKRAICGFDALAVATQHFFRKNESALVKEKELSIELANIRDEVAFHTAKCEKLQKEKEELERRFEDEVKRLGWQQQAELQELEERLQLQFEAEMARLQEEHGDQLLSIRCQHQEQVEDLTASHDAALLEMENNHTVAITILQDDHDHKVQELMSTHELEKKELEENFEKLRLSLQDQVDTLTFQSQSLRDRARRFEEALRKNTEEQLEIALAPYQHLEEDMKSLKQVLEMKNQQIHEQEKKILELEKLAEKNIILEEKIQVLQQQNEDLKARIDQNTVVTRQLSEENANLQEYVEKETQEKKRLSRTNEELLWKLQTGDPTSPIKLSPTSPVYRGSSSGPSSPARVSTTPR

effect of a mutation on the interaction | Variant
with no effect | N34S

Variants of: B4
Conditions: with nt2na_human NOTCH2NLA

effect of a mutation on the interaction | Variant
with no effect | N34S
